Laboratory results: JP2019156807A
Where “and” joins values, the source holds several entries; their conditions need not be identical. Identical values can stand only once.

Biological target: 変性ヒトCD26(ホルマリン固定パラフィン包埋した細胞・組織中、又はSDS/DTT煮沸処理した細胞溶解物中のヒトCD26) (human) (UniProt P27487)
Experiment: immunostaining of FFPE samples, titration of purified antibody (data not shown)

Chain of UniProt P27487 (P27487 whole entry): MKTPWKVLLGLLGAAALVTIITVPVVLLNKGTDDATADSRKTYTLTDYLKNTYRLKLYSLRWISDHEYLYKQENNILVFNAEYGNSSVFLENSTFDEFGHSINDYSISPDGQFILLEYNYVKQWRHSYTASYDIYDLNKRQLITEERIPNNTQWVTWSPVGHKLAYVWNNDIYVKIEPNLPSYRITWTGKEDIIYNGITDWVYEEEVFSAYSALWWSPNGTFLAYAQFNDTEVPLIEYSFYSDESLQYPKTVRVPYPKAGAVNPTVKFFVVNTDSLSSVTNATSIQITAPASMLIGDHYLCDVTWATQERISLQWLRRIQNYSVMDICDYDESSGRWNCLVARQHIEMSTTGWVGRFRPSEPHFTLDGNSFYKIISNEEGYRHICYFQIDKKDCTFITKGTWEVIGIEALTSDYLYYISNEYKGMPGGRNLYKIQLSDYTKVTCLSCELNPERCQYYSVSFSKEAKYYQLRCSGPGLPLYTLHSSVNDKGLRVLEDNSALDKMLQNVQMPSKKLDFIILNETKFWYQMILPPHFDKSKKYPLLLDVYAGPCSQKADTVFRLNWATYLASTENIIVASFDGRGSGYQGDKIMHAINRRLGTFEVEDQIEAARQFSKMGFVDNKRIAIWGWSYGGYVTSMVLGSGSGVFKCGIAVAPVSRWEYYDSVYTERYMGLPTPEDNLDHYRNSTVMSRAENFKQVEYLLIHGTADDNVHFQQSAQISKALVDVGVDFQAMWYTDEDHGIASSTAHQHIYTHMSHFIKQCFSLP

免疫染色の最適濃度	Binder
0.1 μg/mL and 0.2 μg/mL	抗ヒトCD26モノクローナル抗体U16−3 (antibody, V domains shown) VH: EVKLVESGGGLVQPGGSLKLSCATSGFTFSDFYMYWVRQTPEKRLEWVAYISKGGGTTSYPDTVKGRFTISRDNAKNTLYLQLSRLKAEDSAMYYCARRMDYWGQGTSVTVSS VL: DVQMNQSPSSMYASLGERVTITCKASQDINSYLSWFQQKPGKSPKTLIYRANRLVDGVPSRFSGSGSGQDYSLTISSLDYEDMGIYYCLQYDEFPLTFGAGTKLELK
0.5 μg/mL	抗ヒトCD26モノクローナル抗体U38−8 (antibody, V domains shown) VH: EVKLVESGGGLVQPGGSLKLSCATSGFTFSDFYMYWVRQTPEKRLEWVAYISKGGGTTSYPDTVKGRFTISRDNAKNTLYLQLSRLKAEDSAMYYCARRMDYWGQGTSVTVSS VL: DVVVTQTPLSLPVSLGDQASISCRSSQGLEHSSGNTYLHWYLQRPGQSPKLLIYKVSNRFSGVPDRFSGSGSGTDFTLKISRVEAEDLGVYFCSQSTPVPTWTFGGGTKLEIK
